# Experimental data: US20030032785, “High-affinity oligonucleotide ligands to vascular endothelial growth factor (VEGF)” (published 2003)
# Target: VEGF165 (vascular endothelial growth factor, 165 aa form) (Homo sapiens, UniProt P15692-4 P15692-4:27-191)
# Assay: filter
# Conditions: tags: gift of N. Ferrara, Genentech; chain copies: 2 stated
# Protocol: Nitrocellulose Filter Binding Assays. Oligonucleotides bound to proteins can be effectively separated from the unbound species by filtration through nitrocellulose membrane filters (Yarus, M. and Berg, P. (1970) Anal. Biochem. 35:450-465; Lowary, P. T. and Uhlenbeck, O. C. (1987) Nucleic Acids Res. 15:10483-10493; Tuerk, C. and Gold, L. (1990) supra). Nitrocellulose filters (0.2 μm pore size, Schleicher and Schuell, Keene, N.H.) were secured on a filter manifold and washed with 4-10 ml of buffer; Following incubations of ³²P labeled RNA with serial dilutions of the protein for 10 min at 37° C. in buffer (PBS) containing 0.01% human serum albumin (HSA), the solutions were applied to the filters under gentle vacuum in […] aliquots and washed with 5 ml of PBS. The filters were then dried under an infrared lamp and counted in a scintillation counter.
# To this end, certain ligands were synthesized and tested for binding affinity. The binding studies were performed using the protocols described in Example 1.
# VEGF165 (vascular endothelial growth factor, 165 aa form), sequence (P15692 other isoform, or with tags, fused parts or gaps): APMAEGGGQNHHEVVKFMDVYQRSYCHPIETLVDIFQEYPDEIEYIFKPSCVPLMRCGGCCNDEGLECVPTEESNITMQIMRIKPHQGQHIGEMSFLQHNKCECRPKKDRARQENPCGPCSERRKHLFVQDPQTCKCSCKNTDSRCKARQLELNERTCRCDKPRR
binder,measurement,value
"ACCCUGAUGGUAGACGCCGGGGUG (ssRNA, 2'-NH2 at all C and U; G9,A12,A14 2:1 mixture 2'-OMe:2'-OH) [NX-203]",Kd,0.2 nM
